# Measurements taken from patent US10421785B2, “Delta receptor agonist peptides and use thereof” (BAR-ILAN UNIVERSITY, priority 2016, dated 2019).
# “Also recorded” adds a separate entry of the source. Where no end group is shown, it is not given here.
# Columns and labels:
# C6 cells membrane (DOR) = biological target: T1, C6 cells membrane (DOR) (Rattus norvegicus, UniProt P33533); assay: Microscope validation of GNP-peptide binding to C6 cells; assay type: cell-based
# T1 construct: delta opioid receptor expressed by the C6 cells; endogenous in cells; host or cells: C6 glioma cells
# T1 sequence (P33533 whole entry): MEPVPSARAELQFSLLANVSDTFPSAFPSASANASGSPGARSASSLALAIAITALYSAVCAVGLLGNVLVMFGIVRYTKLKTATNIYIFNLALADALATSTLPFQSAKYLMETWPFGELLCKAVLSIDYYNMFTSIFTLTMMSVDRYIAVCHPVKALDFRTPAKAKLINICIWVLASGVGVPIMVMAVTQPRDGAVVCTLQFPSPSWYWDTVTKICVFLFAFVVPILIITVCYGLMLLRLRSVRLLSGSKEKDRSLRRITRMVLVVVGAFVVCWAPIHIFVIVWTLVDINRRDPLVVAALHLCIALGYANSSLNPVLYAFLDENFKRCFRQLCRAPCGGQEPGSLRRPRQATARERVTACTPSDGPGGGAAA
# Protocol: (§1) C6 cells (1×10^6) were cultured in 5 ml glucose-free DMEM medium containing 5% FCS, 0.5% Penicillin and 0.5% Glutamine. Then, excess amounts of GNPs were added and incubated with cells for 30 minutes at 37° C.
# Fluorescent coated (Rhodamine B, Sigma, Israel) GNP-peptidl were incubated with C6 cells for 30 min at 37° C. The cells were subsequently washed three times in PBS prior to confocal imaging using Leica TCS SP5 with Acousto-Optical Beam Splitter microscope to acquire fluorescent and bright field images.
# A Nikon i50 microscope (Tokyo, Japan) equipped with a hyperspectral imaging system (CRI, USA) was used to obtain dark-field images (20× magnification) in order to assess nanoparticle uptake.
# Sprague-Dawley rats = assay: Cue-induced cocaine-seeking behavioral test after forced abstinence
# μ-opioid receptor = biological target: T2, μ-opioid receptor (Rattus norvegicus, UniProt P33535); assay: Competitive flow cytometry assay of free peptides against DAMGO-FITC on C6 cells; assay type: binding; settings: 2 nM DAMGO-FITC
# T2 construct: 50% expressed the μ-opioid receptor; endogenous in cells; host or cells: C6 glioma cells
# T2 sequence (P33535 whole entry): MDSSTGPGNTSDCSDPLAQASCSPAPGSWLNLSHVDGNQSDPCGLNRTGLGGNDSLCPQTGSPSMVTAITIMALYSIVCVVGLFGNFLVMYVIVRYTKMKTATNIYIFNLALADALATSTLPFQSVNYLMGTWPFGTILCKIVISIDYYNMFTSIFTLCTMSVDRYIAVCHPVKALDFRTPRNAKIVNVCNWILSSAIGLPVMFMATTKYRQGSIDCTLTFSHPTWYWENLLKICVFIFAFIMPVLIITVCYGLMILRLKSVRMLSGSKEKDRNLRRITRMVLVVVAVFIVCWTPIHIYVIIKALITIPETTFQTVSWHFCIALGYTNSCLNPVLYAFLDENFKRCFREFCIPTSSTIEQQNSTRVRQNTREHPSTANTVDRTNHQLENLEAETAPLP
# Protocol: (§2) The derived peptides were synthesized (Pepmic, Suzhou, China). The binding specificity of the peptides was tested in a competitive assay. C6 cells were grown to 70-80% confluence and removed from the culture, centrifuged and re-suspended to 2×10^6/ml in PBS/0.05% FBS.DSLET-FITC (3.5 nM) was mixture with 0, 3.5, 10, 50 or 100 nM of peptide. In parallel, 2 nM DAMGO-FITC was mixture with 0, 2, 10, 50 or 100 nM of peptide. These mixtures (500 μl) were added to the cells for 5 min at 37° C. Then 500 μl PBS was added and the tubes centrifuge for 5 min at 4250 rpm. The cell pellet was re-suspended in PBS and analyzed by flow cytometry.
# [1] = biological target: T3, δ-opioid receptor (DOR) expressed on C6 cells (Rattus norvegicus, UniProt P33533); assay: Intracellular cyclic AMP in C6 cells (Direct cAMP kit / cAMP ELISA); assay type: cell-based; settings: for reduction of cAMP levels: 100 nM, C6 cells
# T3 construct: delta opioid receptor expressed by the C6 cells; endogenous in cells; host or cells: C6 glioma cells
# T3 sequence (P33533 whole entry): as the sequence (P33533 whole entry) above
# Protocol: To test the pharmacological function of the peptides showing positive competitive binding versus the DSLET analogue and negative competition versus the DMGO analogue were tested for agonistic activity using the Direct cAMP kit (Enzo). The analogue DSLET was used as a positive control.
# δ-opioid receptor = biological target: T4, δ-opioid receptor (Rattus norvegicus, UniProt P33533); assay: Competitive flow cytometry assay of free peptides against DSLET-FITC on C6 cells; assay type: binding; settings: 100 nM peptide, 3.5 nM DSLET-FITC
# T4 construct: delta opioid receptor expressed by the C6 cells; endogenous in cells; host or cells: C6 glioma cells
# T4 sequence (P33533 whole entry): as above
# Protocol: as §2
# [2] = biological target: T5, delta opioid receptor expressed by the C6 cells (Rattus norvegicus, UniProt P33533); assay: FACS analysis of GNP-peptide binding to C6 cells
# T5 construct: delta opioid receptor expressed by the C6 cells; endogenous in cells; host or cells: C6 glioma cells
# T5 sequence (P33533 whole entry): as above
# Protocol: as §1
# Cells were incubated with GNP-peptide for 15 min at 37° C. and then washed with PBS, followed by trypsin treatment. Then, cells were centrifuged twice (5 min in 1000 rpm) to wash out unbound nanoparticles. Cells were analyzed for cell-associated NPs by Flow Cytometry (FACS; Cellquest software; Becton-Dickinson & Co., Franklin Lakes, N.J.).
compound,measurement,setting,value
"Oc1ccc2c3c1O[C@H]1c4[nH]c5ccccc5c4C[C@@]4(O)[C@@H](C2)N(CC2CC2)CC[C@]314 [naltrindole, reference compound]",binding of GNP conjugated peptide 1 to the cells membrane after blocking the DOR,C6 cells membrane (DOR),significant decrease in the binding; also recorded: prevented the binding of the peptide to the cells membrane
same,cue-induced cocaine-seeking behavior,"Sprague-Dawley rats; intra-NAc infusion, 1 μg, day 1 of forced abstinence",increased cue-induced cocaine-seeking behavior
CTAP [reference compound],cue-induced cocaine-seeking behavior,"Sprague-Dawley rats; intra-NAc injection, 3 μg and 30 ng, 1 day or 30 days of forced abstinence",no behavioral effect
DPDPE [reference compound],active lever presses (seeking behavior) vs CSF group,"Sprague-Dawley rats; injected into the NAc once after 30 days of abstinence, observed at days 30 and 60",reduced seeking behavior
IIAGEYKQMLTL [Peptide 2],inhibition of DAMGO-FITC binding to the μ-opioid receptor,μ-opioid receptor,neither Peptide 1 or 2 inhibited binding
same,reduction of cAMP levels,[1],~80%
same,maximum inhibition of DSLET-FITC binding,δ-opioid receptor,45%
NGNDRTDQMPLP [Peptide 1],inhibition of DAMGO-FITC binding to the μ-opioid receptor,μ-opioid receptor,neither Peptide 1 or 2 inhibited binding
same,reduction of cAMP levels,[1],~80%
same,maximum inhibition of DSLET-FITC binding,δ-opioid receptor,48%
same,active lever presses vs CSF group,"Sprague-Dawley rats; injection into the NAc, two doses",decreased active lever presses
"peptide 1 conjugated to gold nanoparticles: 20 nm PEG-coated gold nanoparticles with the peptide covalently conjugated to the carboxylic group of SH-PEG-COOH (NGNDRTDQMPLP; also: covalently conjugated to carboxyl of SH-PEG-COOH on 20 nm PEG-coated gold nanoparticles, site not given here)",cAMP decreased to % from the initiation state,"[1]; GNP conjugated to peptide 1, C6 cells",80.70%
same,binding to the delta opioid receptor on C6 cells by FACS relative to vehicle,[2],higher affinity and exhibited better binding to the cells relative to vehicle
same,binding to the C6 cells membrane (microscope),C6 cells membrane (DOR); listed as Gold nanoparticle (GNP) conjugated peptide 1,bind mainly the C6 cells membrane
same,binding to the C6 cells membrane (microscope),C6 cells membrane (DOR); listed as Peptide 1 conjugated to GNP,increased binding to the C6 cells membrane
same,active lever presses vs CSF group,"Sprague-Dawley rats; GNP conjugate, injection into the NAc",decreased active lever presses
same,active lever presses vs CSF group,"Sprague-Dawley rats; GNP conjugate, intra-nasal, tested two hours later",Significantly less active lever presses
